{"source": "paper PMC10115844", "about": "“The structural basis of tRNA recognition by arginyl-tRNA-protein transferase”", "molecules": {"B1": {"name": "tRNAArg (argU) in the cryoEM complex (structured_RNA)", "RNA": "GCGCCCUUAGCUCAGUUGGAUAGAGCAACGACCUUCUAAGUCGUGGGCCGCAGGUUCGAAUCCUGCAGGGCGCGCCA", "modifications": "native modifications possible, not stated"}}, "key": {"[1]": {"target": "T1, scATE1 (arginyl-tRNA-protein transferase 1) (Saccharomyces cerevisiae) (UniProt P16639)", "T1 sequence": "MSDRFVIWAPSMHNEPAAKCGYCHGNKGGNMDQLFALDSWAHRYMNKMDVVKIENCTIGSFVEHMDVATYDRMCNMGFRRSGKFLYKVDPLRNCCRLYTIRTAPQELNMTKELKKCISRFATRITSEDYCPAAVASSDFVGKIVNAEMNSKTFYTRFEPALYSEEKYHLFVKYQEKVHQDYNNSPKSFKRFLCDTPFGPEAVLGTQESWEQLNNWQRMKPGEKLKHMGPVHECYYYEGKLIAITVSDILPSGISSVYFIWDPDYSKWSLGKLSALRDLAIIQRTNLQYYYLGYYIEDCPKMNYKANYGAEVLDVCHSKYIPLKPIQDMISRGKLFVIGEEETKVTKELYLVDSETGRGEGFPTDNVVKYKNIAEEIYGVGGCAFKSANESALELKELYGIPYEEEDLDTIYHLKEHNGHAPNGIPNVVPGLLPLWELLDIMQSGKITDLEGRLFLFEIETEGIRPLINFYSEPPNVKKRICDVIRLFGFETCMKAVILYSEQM", "test": "EMSA", "conditions": "EMSA: 20 mM Tris-HCl pH 7.5, 150 mM NaCl, 5 mM DTT, on ice (tRNAArg: 0.001% NP-40, 30 °C), MST: 10 mM Tris, 5 mM Na phosphate pH 7.0, 100 mM NaCl, 3 mM DTT …"}, "[2]": {"target": "T2, scATE1 (arginyl-tRNA-protein transferase 1) (Saccharomyces cerevisiae, UniProt P16639 1-503)", "T2 sequence": "T1 sequence", "test": "MST competition; displacement of FAM-DNA, 30 µM ATE1; EMSA: 20 mM Tris-HCl pH 7.5, 150 mM NaCl, 5 mM DTT, on ice (tRNAArg: 0.001% NP-40, 30 °C); MST: 10 mM Tris, 5 mM Na phosphate pH 7.0, 100 mM NaCl, 3 mM DTT, 0.08% Tween-20; fluorescence: 20 mM Tris pH 7.5, 125 mM NaCl, 3 mM DTT, 27 °C", "conditions": "protein: recombinant; tags: N-terminal GST (pGEX 6p-1), cleaved with PreScission; label: none (SYBR green stain); hairpin"}, "[3]": {"target": "T2, scATE1 (arginyl-tRNA-protein …)", "test": "cryoEM structure; co-purified complex, 3.7 Å map; EMD-29638; EMSA: 20 mM Tris-HCl pH 7.5, 150 mM NaCl, 5 mM DTT, on ice (tRNAArg: 0.001% NP-40, 30 °C); MST: 10 mM Tris, 5 mM Na phosphate pH 7.0, 100 mM NaCl, 3 mM DTT, 0.08% Tween-20; fluorescence: 20 mM Tris pH 7.5, 125 mM NaCl, 3 mM DTT, 27 °C", "conditions": "protein: recombinant; tags: N-terminal GST (pGEX 6p-1), cleaved with PreScission; label: none; tRNA cloverleaf"}}, "data": [{"molecule": "E. coli tRNALys acceptor arm", "values": [{"measurement": "Kd", "setting": "[1]; smeary bands, possibly non-specific", "value": 4000, "unit": "nM"}]}, {"molecule": "full-length tRNALys, in vitro transcribed", "values": [{"measurement": "binding signal (fold weaker than tRNAArg)", "setting": "[1]; 0.25 µM tRNA, affinity similar to acceptor arm alone", "value": 20}]}, {"molecule": "human tRNAArg A + T arms", "values": [{"measurement": "binding signal (fold higher affinity from A + T arms)", "setting": "[1]", "value": 4}]}, {"molecule": "human tRNAArg acceptor (A) arm", "values": [{"measurement": "Kd", "setting": "[1]; 2-fold stronger than E. coli acceptor arm", "value": 1500, "unit": "nM"}]}, {"molecule": "human tRNAArg, in vitro transcribed", "values": [{"measurement": "Kd", "setting": "[1]; 30 °C, 0.001% NP-40, 1 nM RNA, apparent Kd", "value": 155, "unit": "nM"}]}, {"molecule": "GCAUCCGCUACGAACGGAUGCACCA (structured_RNA)", "note": "[E. coli tRNAArg acceptor arm miniRNA hairpin]", "values": [{"measurement": "Ki", "setting": "[2]", "value": "~3600", "unit": "nM"}]}, {"molecule": "B1", "values": [{"measurement": "binding result", "setting": "[3]", "value": "binds"}]}]}
